In article PMC11946224:

Assays:
[1] = target: recombinant cylindracin (C-terminal cysteine-rich domain of cylindracin) (Cyclocybe cylindracea); test: cross-linking; rCYL raised from 0.25 mg/mL (39 uM) to 2.0 mg/mL (312 uM) with BS(PEG)9 at 500 uM; SDS-PAGE, Coomassie staining
[2] = target: recombinant cylindracin (C-terminal cysteine-rich domain of cylindracin) (Cyclocybe cylindracea); test: as above; remark: listed apart in the source
[3] = target: recombinant cylindracin (C-terminal cysteine-rich domain of cylindracin) (Cyclocybe cylindracea); test: cross-linking; rCYL at 0.25 mg/mL (39 uM) with 0.005-5 mM BS(PEG)9 in 20 mM sodium phosphate pH 7.2, 150 mM NaCl, 25 C, 30 min; SDS-PAGE, Coomassie staining

stoichiometry N [1]: 4
stoichiometry N [2]: 2
stoichiometry N [3]: 2
Substance: recombinant cylindracin (C-terminal cysteine-rich domain of cylindracin) (domain or fragment)
